The target of the assay is Ancylostoma ceylanicum phytochelatin synthase (Ancylostoma ceylanicum). The assay is described as follows: SEC.

Usually stoichiometry N stands for the number of molecules, sites or subunits per partner or assembly.

Consider “Ancylostoma ceylanicum phytochelatin synthase (enzyme)”, for which the stoichiometry N stood at 2.

The values are drawn from publication PMC3823645.
